US20040038304A1 (CATALENT PHARMA SOLUTIONS, published 2004)

Molecular target: T1, CEA antigen (UniProt P06731 35-685, limits assumed)
T1 sequence (looked up): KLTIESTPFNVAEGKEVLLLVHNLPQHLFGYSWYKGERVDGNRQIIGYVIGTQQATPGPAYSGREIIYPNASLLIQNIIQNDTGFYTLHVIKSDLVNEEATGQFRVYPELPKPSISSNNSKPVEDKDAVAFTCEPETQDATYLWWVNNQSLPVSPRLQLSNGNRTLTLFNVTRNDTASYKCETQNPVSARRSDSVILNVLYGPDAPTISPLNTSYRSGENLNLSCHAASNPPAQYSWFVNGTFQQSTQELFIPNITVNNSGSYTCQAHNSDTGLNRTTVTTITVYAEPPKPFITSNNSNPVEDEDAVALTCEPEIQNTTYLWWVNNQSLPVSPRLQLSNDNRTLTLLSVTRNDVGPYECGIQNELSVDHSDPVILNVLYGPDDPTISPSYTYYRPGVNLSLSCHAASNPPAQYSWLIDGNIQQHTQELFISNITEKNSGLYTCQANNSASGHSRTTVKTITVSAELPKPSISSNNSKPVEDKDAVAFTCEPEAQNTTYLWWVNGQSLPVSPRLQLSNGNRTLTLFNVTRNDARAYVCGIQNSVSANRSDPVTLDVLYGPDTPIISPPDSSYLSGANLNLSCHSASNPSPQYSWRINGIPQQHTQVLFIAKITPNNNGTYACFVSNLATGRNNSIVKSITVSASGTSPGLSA
Assay: ELISA, plates coated with CEA antigen; MN14 as the standard
Description: Single colonies were made and from an initial 50 clones, 38 viable clones were obtained. The supernatants of these clones were analyzed for human kappa light chain, human Fc (IgG) and CEA antigen binding. For the huLC and huFc assay, the plates were coated with anti-huFab, for the CEA binding assay, the plates were coated with CEA antigen. All values are in ng/ml. Purified MN14 was used as a standard.

- binding result: binds
B1: MN14 antibody (antibody, V domains shown)
VH: EVQLVESGGGVVQPGRSLRLSCSASGFDFTTYWMSWVRQAPGKGLEWIGEIHPDSSTINYAPSLKDRFTISRDNAKNTLFLQMDSLRPEDTGVYFCASLYFGFPWFAYWGQGTPVTVSS
VL: DIQLTQSPSSLSASVGDRVTITCKASQDVGTSVAWYQQKPGKAPKLLIYWTSTRHTGVPSRFSGSGSGTDFTFTISSLQPEDIATYYCQQYSLYRSFGQGTKVEIKR
notes: Purified MN14 used as the standard of the assays; also called Purified MN14
